# Tested on: MS2 coat protein
# Assay: apparent KD of MS2 coat protein; designed switch direction (-1 OFF switch, 1 ON switch): -1; higher = weaker reporter binding
# Summary of the method: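 The buffer was Tris-HCl pH 7.5 with KCl, MgCl2, BSA, DTT, tRNA and Tween-20. In it, SNAP-549-labelled MS2 coat protein was titrated in doubling steps from 0.7 or 1.5 nM to 3 µM over chip-bound RNA switches transcribed by stalled E. coli RNA polymerase on Illumina chips. Apparent KD is the per-design median over clusters of curve fits to normalised fluorescence.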
# [1] = input ligand: microRNA oligo, concentration not stated
# [2] = Eterna round: R95, input ligand: microRNA oligo, concentration not stated
# [3] = Eterna round: R95, input ligand: FMN 200 uM
# [4] = Eterna round: R95, input ligand: none
Sequence,apparent KD of MS2 coat protein (input ligand: FMN 200 uM) [µM],apparent KD of MS2 coat protein [1] [µM],apparent KD of MS2 coat protein (input ligand: none) [µM],apparent KD of MS2 coat protein [2] [µM],apparent KD of MS2 coat protein [3] [µM],apparent KD of MS2 coat protein [4] [µM]
"ACAUGUAAUGCAGGAUAUGGGACACAUGAGGAUCACCCAUGUGACCAUAUGUAAUGCUAAGAGUCUCAGAAGGGUAUGUACAUG [Ex NG2 #46] (Eterna round: R96, puzzle: Exclusion NG 2)",0.0152,0.00756,0.0129,,,
"ACAUGUAUUGCAGGAUAUGGGACACAUGAGGAUCACCCAUGUGACCAUAUGUAAUGCCACGGGUCUCAGAAGGGUAUGUACAUG [Ex NG2 #44] (Eterna round: R96, puzzle: Exclusion NG 2)",0.0128,0.0103,0.0141,,,
"ACAUGUAUUGCAGGAUAUGGGACACAUGAGGAUCACCCAUGUGACCAUAUGUAAUGCUAAGAGUCUCAGAAGGGUAUGUACAUG [Ex NG2 #45] (Eterna round: R96, puzzle: Exclusion NG 2)",0.0107,0.00859,0.0114,,,
"ACAUGUCAUCGAGGAUAUUGGACACAUGAGGAUCACCCAUGUACUCGGAGGCUCUACCAUGAGUUCGAGAAGGCGAUGUACAUG [Ex NG2 #76] (Eterna round: R96, puzzle: Exclusion NG 2)",0.651,0.316,0.365,,,
"ACAUGUCAUCGAGGAUAUUGUACACAUGAGGAUCACCCAUGUACUCGGUUGCUCUAGCAUGCGUUCGAGAAGGCGAUGUACAUU [Ex NG2 #98] (Eterna round: R96, puzzle: Exclusion NG 2)",0.052,0.0888,0.144,,,
"ACAUGUCAUCGAGGAUAUUGUACACAUGAGGAUCACCCAUGUAUUCGGUUGCUCUCGCGUGAGUUCGAGAAGGCGAUGUACAUU [Ex NG2 #82] (Eterna round: R96, puzzle: Exclusion NG 2)",0.105,0.0242,0.0293,,,
"ACAUGUCAUUGAGGAUAUUGCACACAUGAGGAUCACCCAUGUAUACGGAUGCUCUUCCGUGAGUUCGAGAAGGCGAUGUACAUU [Ex NG2 #90] (Eterna round: R96, puzzle: Exclusion NG 2)",0.0713,0.0386,0.0607,,,
"ACAUGUCAUUGAGGAUAUUGCACACAUGAGGAUCACCCAUGUAUACGGUUGCUCUUACGUGAGUUCGAGAAGGCGAUGUACAUU [Ex NG2 #88] (Eterna round: R96, puzzle: Exclusion NG 2)",0.153,0.123,0.181,,,
"ACAUGUCUUGUAGGAUAUAGUUGACAUGAGGAUCACCCAUGUUGAUUCAUGUCUAUGGAAACGGACUAGAAGGACGAGAAUAUG [Ex NG2 #17] (Eterna round: R96, puzzle: Exclusion NG 2)",0.0505,0.0253,0.0259,,,
"ACAUGUUAUCCAUGAUAUCACAUGAGGAUCACCCAUGUUAUGGCGAUUUUGAGGUGUAAGUUUGUUGCUCGUCUUAU [JR_STOV1_Sub059] (Eterna round: R97, puzzle: Sensor, turn-off variant 1)",0.0545,,0.0653,,,
"ACAUGUUGCGCAGGAUAUGAGACACAUGAGGAUCACCCAUGUGGCUACAUGUCAUACCAAGCGUCUCAGAAGGGUGUGAACAUG [Ex NG2 #34] (Eterna round: R96, puzzle: Exclusion NG 2)",0.0187,0.0117,0.0181,,,
"ACAUUACAUGAGGAUCACCCAUGUGAGGAUAUGGAGCGAGAGUGUCCUGUCGCGUACACCAGAAGGCGCGGGUG [1st #50] (Eterna round: R97, puzzle: Exclusion 1)",0.235,,0.0801,,,
ACAUUGUGAGGAUAUCCGAAGAAGGUCCGGAAGGUUCGGGUGGAGAAGGCACAUGAGGAUCACCCAUGUGUGGG [Excls4-VIII] (puzzle: Exclusion 4),,,,0.0393,,
"ACCAAGUCAGGAUAUCCAGUUAGCCUUCGAGGCUGGGAAUAGGAGAAGGGACAUGAGGAUCACCCAUGUGGGCC [Eternabot (L2) Solution 78] (Eterna round: R97, puzzle: Exclusion 4)",0.215,,0.0544,,,
"ACCAUGUUAGGAUAUGCGUGGCAUAGACCGGUCUAUCCGCGGUAGAAGGGACAUGAGGAUCACCCAUGUGCGAG [Eternabot (L2) Solution 85] (Eterna round: R97, puzzle: Exclusion 4)",0.0415,,0.0323,,,
ACCCAACAUGAGGAUCACCCAUGUCAGGAUAUCCAAGCGAAAGCAAAAGCGAAAGCAAGGAGAAGGGACAGAGG [ChP 04-04-2015 #6] (puzzle: Exclusion 1),,,,0.09,0.308,0.18

Sequence,apparent KD of MS2 coat protein (input ligand: FMN 200 uM) [µM],apparent KD of MS2 coat protein [1] [µM],apparent KD of MS2 coat protein (input ligand: none) [µM],apparent KD of MS2 coat protein [2] [µM],apparent KD of MS2 coat protein [3] [µM],apparent KD of MS2 coat protein [4] [µM]
ACCCAACAUGAGGAUCACCCAUGUCAGGAUAUCCUCGGGAAACCAAAAGAGGAGCCGAGGAGAAGGGACAGAGG [ChP 04-04-2015 #5] (puzzle: Exclusion 1),,,,0.233,0.124,0.227
"ACCCUAAUCGUGAGGAUAUACUGCGUCAAAGACGGGUAGAAGGUACAUGAGGAUCACCCAUGUUUGGCUACUAA [Eternabot (L2) Solution 48] (Eterna round: R97, puzzle: Brourd's mod of Exclusion 4)",0.0283,,0.0277,,,
"ACCCUCCCGCAGGAUAUAAUAAAGUGGUACUUAUUAGAAGGGCGUACAUGAGGAUCACCCAUGUCGUGACGUGC [Eternabot (L1) Solution 5] (Eterna round: R97, puzzle: Exclusion 6)",0.0255,,0.0259,,,
ACCGAACAUGAGGAUCACCCAUGUGAGGAUAUCCCGAGAUUAAAUGCCGCAAGAAGGCGGAGAAGGCGCAUGGG [Ditiesre] (puzzle: Exclusion 1),,,,0.0237,0.0452,0.0313
"ACCUACCAGCUAGGAUAUGCAGUACAGUAAAAUGUAGAAGGAGCACGAUCCAGACAUGAGGAUCACCCAUGUGGGCGGUAGGCA [Errage] (Eterna round: R96, puzzle: Exclusion NG 1)",0.0144,0.014,0.0169,,,
ACCUCACAUGAGGAUCACCCAUGUCAGGAUAUACAAACCGUGUAAAGACACGGUCGUAGUAGAAGGGACUAUGG [Telalebees] (puzzle: Exclusion 1),,,,0.0591,,
ACCUCACAUGAGGAUCACCCAUGUCAGGAUAUACAAGAAAAUAACCGGAAAGACCGGAGUAGAAGGGACAUAAG [Arisus] (puzzle: Exclusion 1),,,,0.0162,0.0303,0.0171
"ACCUCACAUGAGGAUCACCCAUGUCAGGAUAUCUUUUAAAACGCGAAUCGCGUCGCUGAGAGAAGGGACAUUAA [EX1 #21] (Eterna round: R97, puzzle: Exclusion 1)",0.0996,,0.0391,,,
ACCUCACAUGAGGAUCACCCAUGUCAGGAUAUGUACCUAGCCAAAACAAAGGCCAGAAGCAGAAGGGACUGCGG [Ralerezara] (puzzle: Exclusion 1),,,,0.0534,0.0241,0.0446
ACCUCACAUGAGGAUCACCCAUGUUAGGAUAUCUCGACACUCCGCGGGCGGUAGCGUCAGAGAAGGAACGUGCU [Iszaxeza] (puzzle: Exclusion 1),,,,0.0231,,
ACCUCACAUGAGGAUCACCCAUGUUAGGAUAUCUCGGCGCCCUGUAGGCAGUAGCGCCAGAGAAGGAACGUGCA [Gearorso] (puzzle: Exclusion 1),,,,0.0198,,
"ACCUCACUUGAGGAUCACCCAAGUCAGGAUAUACUCGUUUGCCGCACGACGCGGCAUUGUAGAAGGGACGGGUU [Arveatat] (Eterna round: R97, puzzle: Exclusion 1)",0.0351,,0.0179,,,
"ACCUCUGCUGAGGAUAUCCUUGCGGAAGAAGGAGGAGAAGGCAGAACAUGAGGAUCACCCAUGUGGGAACAACG [Eternabot (Original) Solution 37] (Eterna round: R97, puzzle: Exclusion 6)",0.182,,0.0838,,,
ACCUUACAUGAGGAUCACCCAUGUCAGGAUAUCUCGGGCGGCUGAGGACCAGCCACCCAGAGAAGGGACGAGGA [Qumaraanan] (puzzle: Exclusion 1),,,,0.0119,0.015,0.0157
ACCUUACAUGAGGAUCACCCAUGUCAGGAUAUCUCGGGCGGCUGAGGACCAGCCGCCCAGAGAAGGGACGAGGA [Leleusarra] (puzzle: Exclusion 1),,,,0.0125,,
